Measurements from IntAct's records for PubMed 25910212.

B1: DNA mismatch repair protein Mlh1 (Homo sapiens), P40692 (parent)
chain: MSFVAGVIRRLDETVVNRIAAGEVIQRPANAIKEMIENCLDAKSTSIQVIVKEGGLKLIQIQDNGTGIRKEDLDIVCERFTTSKLQSFEDLASISTYGFRGEALASISHVAHVTITTKTADGKCAYRASYSDGKLKAPPKPCAGNQGTQITVEDLFYNIATRRKALKNPSEEYGKILEVVGRYSVHNAGISFSVKKQGETVADVRTLPNASTVDNIRSIFGNAVSRELIEIGCEDKTLAFKMNGYISNANYSVKKCIFLLFINHRLVESTSLRKAIETVYAAYLPKNTHPFLYLSLEISPQNVDVNVHPTKHEVHFLHEESILERVQQHIESKLLGSNSSRMYFTQTLLPGLAGPSGEMVKSTTSLTSSSTSGSSDKVYAHQMVRTDSREQKLDAFLQPLSKPLSSQPQAIVTEDKTDISSGRARQQDEEMLELPAPAEVAAKNQSLEGDTTKGTSEMSEKRGPTSSNPRKRHREDSDVEMVEDDSRKEMTAACTPRRRIINLTSVLSLQEEINEQGHEVLREMLHNHSFVGCVNPQWALAQHQTKLYLLNTTKLSEELFYQILIYDFANFGVLRLSEPAPLFDLAMLALDSPESGWTEEDGPKEGLAEYIVEFLKKKAEMLADYFSLEIDEEGNLIGLPLLIDNYVPPLEGLPIFILRLATEVNWDEEKECFESLSKECAMFYSIRKQYISEESTLSGQQSEVPGSIPNSWKWTVEHIVYKALRSHILPPKHFTEDGNILQLANLPDLYKVFERC
partner: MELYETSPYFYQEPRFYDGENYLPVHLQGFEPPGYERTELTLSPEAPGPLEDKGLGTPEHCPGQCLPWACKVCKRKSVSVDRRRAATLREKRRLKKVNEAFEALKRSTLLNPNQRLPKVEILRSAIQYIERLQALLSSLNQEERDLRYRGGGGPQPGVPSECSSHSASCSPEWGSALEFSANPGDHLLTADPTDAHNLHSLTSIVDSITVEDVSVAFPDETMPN
B2: Neutrophil cytosol factor 2 (Homo sapiens), P19878 (parent)
chain: MSLVEAISLWNEGVLAADKKDWKGALDAFSAVQDPHSRICFNIGCMYTILKNMTEAEKAFTRSINRDKHLAVAYFQRGMLYYQTEKYDLAIKDLKEALIQLRGNQLIDYKILGLQFKLFACEVLYNIAFMYAKKEEWKKAEEQLALATSMKSEPRHSKIDKAMECVWKQKLYEPVVIPVGKLFRPNERQVAQLAKKDYLGKATVVASVVDQDSFSGFAPLQPQAAEPPPRPKTPEIFRALEGEAHRVLFGFVPETKEELQVMPGNIVFVLKKGNDNWATVMFNGQKGLVPCNYLEPVELRIHPQQQPQEESSPQSDIPAPPSSKAPGRPQLSPGQKQKEEPKEVKLSVPMPYTLKVHYKYTVVMKTQPGLPYSQVRDMVSKKLELRLEHTKLSYRPRDSNELVPLSEDSMKDAWGQVKNYCLTLWCENTVGDQGFPDEPKESEKADANNQTTEPQLKKGSQVEALFSYEATQPEDLEFQEGDIILVLSKVNEEWLEGECKGKVGIFPKVFVEDCATTDLESTRREV
B3: Myozenin-2 (Homo sapiens), Q9NPC6 (parent)
chain: MLSHNTMMKQRKQQATAIMKEVHGNDVDGMDLGKKVSIPRDIMLEELSHLSNRGARLFKMRQRRSDKYTFENFQYQSRAQINHSIAMQNGKVDGSNLEGGSQQAPLTPPNTPDPRSPPNPDNIAPGYSGPLKEIPPEKFNTTAVPKYYQSPWEQAISNDPELLEALYPKLFKPEGKAELPDYRSFNRVATPFGGFEKASRMVKFKVPDFELLLLTDPRFMSFVNPLSGRRSFNRTPKGWISENIPIVITTEPTDDTTVPESEDL
B4: ATP synthase mitochondrial F1 complex assembly factor 2 (Homo sapiens), Q8N5M1 (parent)
chain: MWRSCLRLRDGGRRLLNRPAGGPSASMSPGPTIPSPARAYAPPTERKRFYQNVSITQGEGGFEINLDHRKLKTPQAKLFTVPSEALAIAVATEWDSQQDTIKYYTMHLTTLCNTSLDNPTQRNKDQLIRAAVKFLDTDTICYRVEEPETLVELQRNEWDPIIEWAEKRYGVEISSSTSIMGPSIPAKTREVLVSHLASYNTWALQGIEFVAAQLKSMVLTLGLIDLRLTVEQAVLLSRLEEEYQIQKWGNIEWAHDYELQELRARTAAGTLFIHLCSESTTVKHKLLKE
partner: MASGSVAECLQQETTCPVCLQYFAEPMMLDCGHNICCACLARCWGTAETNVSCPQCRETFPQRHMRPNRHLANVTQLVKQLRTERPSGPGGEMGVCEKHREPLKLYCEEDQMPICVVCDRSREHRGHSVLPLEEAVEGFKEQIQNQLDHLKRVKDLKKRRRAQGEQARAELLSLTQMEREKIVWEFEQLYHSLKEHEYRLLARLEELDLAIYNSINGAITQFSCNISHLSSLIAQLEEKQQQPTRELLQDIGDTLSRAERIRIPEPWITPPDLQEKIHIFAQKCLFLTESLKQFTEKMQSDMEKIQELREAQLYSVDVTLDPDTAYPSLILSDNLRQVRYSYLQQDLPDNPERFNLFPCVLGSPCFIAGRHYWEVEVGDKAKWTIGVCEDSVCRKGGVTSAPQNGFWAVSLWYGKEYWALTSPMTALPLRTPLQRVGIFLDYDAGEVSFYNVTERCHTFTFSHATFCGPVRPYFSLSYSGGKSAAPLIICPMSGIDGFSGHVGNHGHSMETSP
B5: U4/U6 small nuclear ribonucleoprotein Prp31 (Homo sapiens), Q8WWY3 (parent)
chain: MSLADELLADLEEAAEEEEGGSYGEEEEEPAIEDVQEETQLDLSGDSVKTIAKLWDSKMFAEIMMKIEEYISKQAKASEVMGPVEAAPEYRVIVDANNLTVEIENELNIIHKFIRDKYSKRFPELESLVPNALDYIRTVKELGNSLDKCKNNENLQQILTNATIMVVSVTASTTQGQQLSEEELERLEEACDMALELNASKHRIYEYVESRMSFIAPNLSIIIGASTAAKIMGVAGGLTNLSKMPACNIMLLGAQRKTLSGFSSTSVLPHTGYIYHSDIVQSLPPDLRRKAARLVAAKCTLAARVDSFHESTEGKVGYELKDEIERKFDKWQEPPPVKQVKPLPAPLDGQRKKRGGRRYRKMKERLGLTEIRKQANRMSFGEIEEDAYQEDLGFSLGHLGKSGSGRVRQTQVNEATKARISKTLQRTLQKQSVVYGGKSTIRDRSSGTASSVAFTPLQGLEIVNPQAAEKKVAEANQKYFSSMAEFLKVKGEKSGLMST
B6: Mothers against decapentaplegic homolog 3 (Homo sapiens), P84022 (parent)
chain: MSSILPFTPPIVKRLLGWKKGEQNGQEEKWCEKAVKSLVKKLKKTGQLDELEKAITTQNVNTKCITIPRSLDGRLQVSHRKGLPHVIYCRLWRWPDLHSHHELRAMELCEFAFNMKKDEVCVNPYHYQRVETPVLPPVLVPRHTEIPAEFPPLDDYSHSIPENTNFPAGIEPQSNIPETPPPGYLSEDGETSDHQMNHSMDAGSPNLSPNPMSPAHNNLDLQPVTYCEPAFWCSISYYELNQRVGETFHASQPSMTVDGFTDPSNSERFCLGLLSNVNRNAAVELTRRHIGRGVRLYYIGGEVFAECLSDSAIFVQSPNCNQRYGWHPATVCKIPPGCNLKIFNNQEFAALLAQSVNQGFEAVYQLTRMCTIRMSFVKGWGAEYRRQTVTSTPCWIELHLNGPLQWLDKVLTQMGSPSIRCSSVS
partner: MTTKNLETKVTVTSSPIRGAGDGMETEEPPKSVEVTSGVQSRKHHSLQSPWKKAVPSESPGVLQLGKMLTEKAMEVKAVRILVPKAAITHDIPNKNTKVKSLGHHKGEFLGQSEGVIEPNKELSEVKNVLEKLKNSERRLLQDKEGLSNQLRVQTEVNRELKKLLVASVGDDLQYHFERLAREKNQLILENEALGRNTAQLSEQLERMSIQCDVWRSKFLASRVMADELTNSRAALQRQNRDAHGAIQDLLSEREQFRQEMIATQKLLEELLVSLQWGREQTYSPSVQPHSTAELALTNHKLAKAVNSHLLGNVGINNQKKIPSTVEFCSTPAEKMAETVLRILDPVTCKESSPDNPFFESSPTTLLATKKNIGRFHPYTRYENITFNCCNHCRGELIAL

Variants of: B1
Details: with myog_human MYOG

Variant | effect of a mutation on the interaction
R472I | with no effect
G244D | disrupting interaction strength

Variants of: B2
Details: with goga2_human GOLGA2, Q08379
Target sequence in this assay (Q08379 whole entry): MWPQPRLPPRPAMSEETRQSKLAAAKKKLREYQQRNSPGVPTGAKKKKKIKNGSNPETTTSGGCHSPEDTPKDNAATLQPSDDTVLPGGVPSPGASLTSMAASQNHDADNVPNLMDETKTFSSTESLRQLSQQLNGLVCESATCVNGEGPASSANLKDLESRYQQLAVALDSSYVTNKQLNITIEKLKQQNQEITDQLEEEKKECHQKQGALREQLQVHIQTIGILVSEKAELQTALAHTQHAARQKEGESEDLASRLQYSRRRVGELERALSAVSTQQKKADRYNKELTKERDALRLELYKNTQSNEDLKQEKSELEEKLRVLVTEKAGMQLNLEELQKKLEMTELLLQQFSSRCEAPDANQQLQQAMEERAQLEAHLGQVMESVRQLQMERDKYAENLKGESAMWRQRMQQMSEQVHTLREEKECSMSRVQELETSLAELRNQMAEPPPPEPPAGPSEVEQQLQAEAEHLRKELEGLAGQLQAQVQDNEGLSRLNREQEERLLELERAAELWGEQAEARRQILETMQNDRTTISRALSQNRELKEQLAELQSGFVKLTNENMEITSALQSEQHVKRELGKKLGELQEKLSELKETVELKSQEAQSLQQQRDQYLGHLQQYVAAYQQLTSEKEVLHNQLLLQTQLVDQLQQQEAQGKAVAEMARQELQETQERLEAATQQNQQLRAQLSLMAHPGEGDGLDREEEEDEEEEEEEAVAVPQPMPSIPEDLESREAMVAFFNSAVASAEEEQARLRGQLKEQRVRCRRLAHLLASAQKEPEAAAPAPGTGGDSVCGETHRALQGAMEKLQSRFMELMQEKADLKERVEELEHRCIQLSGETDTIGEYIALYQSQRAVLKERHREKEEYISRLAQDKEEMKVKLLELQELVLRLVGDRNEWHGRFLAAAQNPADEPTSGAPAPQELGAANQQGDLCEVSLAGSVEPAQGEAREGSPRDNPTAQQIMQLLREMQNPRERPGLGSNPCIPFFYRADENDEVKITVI

effect of a mutation on the interaction | Variant
with no effect | N419I
with no effect | R395W

Second part, the variant before the results:

Variant | effect of a mutation on the interaction
G78E | disrupting interaction strength
R77Q | disrupting interaction strength

Variants of: B2
Details: with kifa3_human KIFAP3, Q92845
Chain of kifa3_human KIFAP3, Q92845 (Q92845 whole entry): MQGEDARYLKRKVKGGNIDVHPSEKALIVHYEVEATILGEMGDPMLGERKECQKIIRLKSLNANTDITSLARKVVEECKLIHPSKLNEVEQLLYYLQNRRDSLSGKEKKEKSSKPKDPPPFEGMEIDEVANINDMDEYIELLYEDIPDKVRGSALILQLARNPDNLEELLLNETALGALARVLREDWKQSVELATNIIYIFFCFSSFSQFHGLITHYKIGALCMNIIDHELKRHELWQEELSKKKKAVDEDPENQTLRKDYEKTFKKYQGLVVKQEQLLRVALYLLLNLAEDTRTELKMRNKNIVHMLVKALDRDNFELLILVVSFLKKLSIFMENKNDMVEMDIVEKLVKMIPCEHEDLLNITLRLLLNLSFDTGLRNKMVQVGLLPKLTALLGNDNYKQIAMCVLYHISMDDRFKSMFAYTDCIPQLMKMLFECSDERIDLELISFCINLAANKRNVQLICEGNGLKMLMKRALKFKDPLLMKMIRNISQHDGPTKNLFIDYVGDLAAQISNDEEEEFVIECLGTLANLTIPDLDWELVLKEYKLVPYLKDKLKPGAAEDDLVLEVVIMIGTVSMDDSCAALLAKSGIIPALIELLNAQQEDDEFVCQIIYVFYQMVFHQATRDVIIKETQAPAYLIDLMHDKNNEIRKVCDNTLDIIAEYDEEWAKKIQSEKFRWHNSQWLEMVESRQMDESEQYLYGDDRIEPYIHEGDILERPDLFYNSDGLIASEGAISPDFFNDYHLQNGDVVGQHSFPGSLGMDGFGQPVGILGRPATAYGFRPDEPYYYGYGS

effect of a mutation on the interaction | Variant
with no effect | N419I
with no effect | R395W

Second part, the variant before the results:

Variant | effect of a mutation on the interaction
G78E | disrupting interaction strength
R77Q | disrupting interaction strength

Variants of: B3
Details: with actn2_human ACTN2, P35609
Chain of actn2_human ACTN2, P35609 (P35609 whole entry): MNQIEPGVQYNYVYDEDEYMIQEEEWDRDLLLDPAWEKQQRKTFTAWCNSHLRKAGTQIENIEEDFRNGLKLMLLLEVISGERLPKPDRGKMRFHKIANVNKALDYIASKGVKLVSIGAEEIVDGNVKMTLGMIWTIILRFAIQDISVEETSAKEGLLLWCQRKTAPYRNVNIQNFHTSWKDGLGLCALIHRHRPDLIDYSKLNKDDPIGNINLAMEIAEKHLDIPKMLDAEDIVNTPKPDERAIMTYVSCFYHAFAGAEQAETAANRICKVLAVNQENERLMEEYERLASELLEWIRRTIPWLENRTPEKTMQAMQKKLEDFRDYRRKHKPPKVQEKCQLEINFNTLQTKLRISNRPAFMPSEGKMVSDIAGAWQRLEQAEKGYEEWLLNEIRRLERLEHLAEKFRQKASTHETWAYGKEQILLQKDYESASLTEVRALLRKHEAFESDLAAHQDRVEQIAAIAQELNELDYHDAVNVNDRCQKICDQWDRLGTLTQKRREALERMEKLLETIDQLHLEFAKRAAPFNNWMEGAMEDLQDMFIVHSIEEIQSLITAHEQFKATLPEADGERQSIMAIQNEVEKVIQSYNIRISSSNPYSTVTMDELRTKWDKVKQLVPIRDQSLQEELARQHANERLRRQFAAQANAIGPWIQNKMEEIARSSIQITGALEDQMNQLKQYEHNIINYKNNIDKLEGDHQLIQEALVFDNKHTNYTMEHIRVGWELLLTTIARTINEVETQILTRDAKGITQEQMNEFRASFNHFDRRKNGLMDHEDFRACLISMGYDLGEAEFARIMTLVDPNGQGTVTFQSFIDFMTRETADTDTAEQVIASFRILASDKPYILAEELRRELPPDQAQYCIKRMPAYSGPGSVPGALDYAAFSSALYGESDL

Variant | effect of a mutation on the interaction
I246M | with no effect
Q10P | with no effect
S48P | with no effect

Variants of: B3
Details: with actn1_human ACTN1, P12814
Chain of actn1_human ACTN1, P12814 (P12814 whole entry): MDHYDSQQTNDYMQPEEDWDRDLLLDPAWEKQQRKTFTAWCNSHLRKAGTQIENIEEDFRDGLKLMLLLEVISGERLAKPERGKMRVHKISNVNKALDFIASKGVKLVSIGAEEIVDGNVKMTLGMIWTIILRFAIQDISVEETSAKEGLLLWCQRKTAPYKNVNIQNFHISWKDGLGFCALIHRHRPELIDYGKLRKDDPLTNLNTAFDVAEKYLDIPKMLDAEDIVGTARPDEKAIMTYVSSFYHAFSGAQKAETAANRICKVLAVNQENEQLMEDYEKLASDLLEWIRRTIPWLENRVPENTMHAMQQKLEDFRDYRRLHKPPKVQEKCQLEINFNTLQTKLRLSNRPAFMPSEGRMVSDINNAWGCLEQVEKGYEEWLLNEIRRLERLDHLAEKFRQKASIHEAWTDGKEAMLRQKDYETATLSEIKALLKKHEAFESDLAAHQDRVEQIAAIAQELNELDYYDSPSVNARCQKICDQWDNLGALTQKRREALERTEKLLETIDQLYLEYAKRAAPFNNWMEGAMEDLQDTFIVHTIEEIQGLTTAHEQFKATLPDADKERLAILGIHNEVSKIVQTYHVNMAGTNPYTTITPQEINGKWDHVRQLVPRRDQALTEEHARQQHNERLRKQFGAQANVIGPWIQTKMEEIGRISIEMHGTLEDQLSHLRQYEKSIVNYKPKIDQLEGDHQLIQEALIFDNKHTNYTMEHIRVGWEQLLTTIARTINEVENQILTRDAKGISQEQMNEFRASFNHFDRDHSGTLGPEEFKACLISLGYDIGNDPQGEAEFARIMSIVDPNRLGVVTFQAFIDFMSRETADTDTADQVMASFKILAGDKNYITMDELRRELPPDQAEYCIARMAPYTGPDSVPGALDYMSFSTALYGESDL

Variant | effect of a mutation on the interaction
I246M | with no effect
Q10P | with no effect
S48P | with no effect

Variants of: B3
Details: with actn4_human ACTN4, O43707
Chain of actn4_human ACTN4, O43707 (O43707 whole entry): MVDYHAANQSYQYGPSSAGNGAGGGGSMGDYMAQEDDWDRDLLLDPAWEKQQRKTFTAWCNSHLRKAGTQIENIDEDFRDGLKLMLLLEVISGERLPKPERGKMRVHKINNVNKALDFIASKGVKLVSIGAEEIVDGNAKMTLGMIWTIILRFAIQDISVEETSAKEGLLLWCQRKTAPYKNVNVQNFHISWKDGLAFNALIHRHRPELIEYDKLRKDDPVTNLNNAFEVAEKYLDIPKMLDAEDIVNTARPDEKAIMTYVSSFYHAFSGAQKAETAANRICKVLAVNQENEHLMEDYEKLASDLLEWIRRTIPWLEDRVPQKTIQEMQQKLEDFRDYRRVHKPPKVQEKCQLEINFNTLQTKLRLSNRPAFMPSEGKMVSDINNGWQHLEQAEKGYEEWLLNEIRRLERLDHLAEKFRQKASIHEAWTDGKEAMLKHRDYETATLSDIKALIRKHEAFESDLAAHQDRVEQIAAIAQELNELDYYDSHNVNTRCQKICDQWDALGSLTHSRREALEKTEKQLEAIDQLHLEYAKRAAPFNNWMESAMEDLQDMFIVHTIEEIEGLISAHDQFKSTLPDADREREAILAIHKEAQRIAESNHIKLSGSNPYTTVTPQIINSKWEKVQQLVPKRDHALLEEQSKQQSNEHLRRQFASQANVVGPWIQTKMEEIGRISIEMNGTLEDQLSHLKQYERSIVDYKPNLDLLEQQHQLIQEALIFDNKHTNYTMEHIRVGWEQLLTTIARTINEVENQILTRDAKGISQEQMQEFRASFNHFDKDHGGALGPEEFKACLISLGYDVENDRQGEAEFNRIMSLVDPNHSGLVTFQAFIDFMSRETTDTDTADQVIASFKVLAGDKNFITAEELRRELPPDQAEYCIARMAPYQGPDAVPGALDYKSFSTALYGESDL

Variant | effect of a mutation on the interaction
I246M | with no effect
Q10P | with no effect
S48P | with no effect

Variants of: B4
Details: with tri27_human TRIM27, P14373

Variant | effect of a mutation on the interaction
W94R | disrupting interaction strength

Variants of: B5
Details: with pnma1_human PNMA1, Q8ND90
Chain of pnma1_human PNMA1, Q8ND90 (Q8ND90 whole entry): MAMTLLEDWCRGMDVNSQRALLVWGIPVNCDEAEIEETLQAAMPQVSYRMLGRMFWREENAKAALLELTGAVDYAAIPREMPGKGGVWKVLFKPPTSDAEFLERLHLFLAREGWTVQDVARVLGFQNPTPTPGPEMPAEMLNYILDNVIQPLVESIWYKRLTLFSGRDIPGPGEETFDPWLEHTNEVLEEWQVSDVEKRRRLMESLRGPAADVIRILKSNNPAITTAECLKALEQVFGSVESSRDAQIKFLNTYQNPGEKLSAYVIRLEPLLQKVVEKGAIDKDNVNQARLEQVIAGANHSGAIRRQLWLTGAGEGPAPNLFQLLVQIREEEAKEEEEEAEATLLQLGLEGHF

Variant | effect of a mutation on the interaction
L107V | with no effect

Variants of: B5
Details: with lzts2_human LZTS2, Q9BRK4

Variant | effect of a mutation on the interaction
L107V | with no effect

Variants of: B5
Details: with pak5_human PAK5, Q9P286

Variant | effect of a mutation on the interaction
L107V | with no effect

Variants of: B5
Details: with myome_human PDE4DIP

Variant | effect of a mutation on the interaction
L107V | with no effect

Variants of: B5
Details: with tsg10_human TSGA10, Q9BZW7

Variant | effect of a mutation on the interaction
L107V | with no effect

Variants of: B5
Details: with ppip1_human PSTPIP1, O43586

Variant | effect of a mutation on the interaction
L107V | with no effect

Variants of: B5
Details: with fbln4_human EFEMP2, O95967

Variant | effect of a mutation on the interaction
L107V | with no effect

Variants of: B5
Details: with ldoc1_human LDOC1, O95751
Chain of ldoc1_human LDOC1, O95751 (O95751 whole entry): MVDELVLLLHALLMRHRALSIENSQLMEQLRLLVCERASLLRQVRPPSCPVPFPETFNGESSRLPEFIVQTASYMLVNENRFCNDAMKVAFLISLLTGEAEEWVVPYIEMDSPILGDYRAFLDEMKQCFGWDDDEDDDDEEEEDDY

Variant | effect of a mutation on the interaction
L107V | with no effect

Variants of: B5
Details: with znf24_human ZNF24, P17028

Variant | effect of a mutation on the interaction
L107V | with no effect

Variants of: B5
Details: with KRT15, P19012

Variant | effect of a mutation on the interaction
L107V | with no effect

Variants of: B5
Details: with rbmx_human RBMX

Variant | effect of a mutation on the interaction
L107V | with no effect

Variants of: B5
Details: with HNRNPK

Variant | effect of a mutation on the interaction
L107V | with no effect

Variants of: B5
Details: with mdfi_human MDFI

Variant | effect of a mutation on the interaction
L107V | with no effect

Variants of: B5
Details: with ZNF250, P15622-3

Variant | effect of a mutation on the interaction
L107V | with no effect

Variants of: B5
Details: with zn587_human ZNF587, Q96SQ5

Variant | effect of a mutation on the interaction
L107V | with no effect

Variants of: B5
Details: with KRT40, Q6A162

Variant | effect of a mutation on the interaction
L107V | with no effect

Variants of: B5
Details: with nt2na_human NOTCH2NLA

Variant | effect of a mutation on the interaction
L107V | with no effect

Variants of: B5
Details: with tfp11_human TFIP11, Q9UBB9

Variant | effect of a mutation on the interaction
L107V | with no effect

Variants of: B5
Details: with goga2_human GOLGA2, Q08379
Target sequence in this assay (Q08379 whole entry): as the sequence (Q08379 whole entry) above

Variant | effect of a mutation on the interaction
L107V | with no effect

Variants of: B5
Details: with jkip2_human JAKMIP2, Q96AA8

Variant | effect of a mutation on the interaction
L107V | with no effect

Variants of: B5
Details: with ccd33_human CCDC33, Q8N5R6

Variant | effect of a mutation on the interaction
L107V | with no effect

Variants of: B5
Details: with zn417_human ZNF417, Q8TAU3

Variant | effect of a mutation on the interaction
L107V | with no effect

Variants of: B5
Details: with MTUS2, Q5JR59-3

Variant | effect of a mutation on the interaction
L107V | with no effect

Variants of: B6
Details: with go45_human BLZF1, Q9H2G9

Variant | effect of a mutation on the interaction
I170V | with no effect
N197I | with no effect
